The values that follow come from paper PMC7048804.

The target in one test is ERCC1 (human) (UniProt P07992).
Test [1] addresses XPF–ERCC1 complex (human) (UniProt Q92889).
Test [2] has as its target XPF–ERCC1 mutant 323–326Δ^XPF (human) (UniProt Q92889).

UniProt P07992, sequence (P07992 other isoform, or with tags, fused parts or gaps): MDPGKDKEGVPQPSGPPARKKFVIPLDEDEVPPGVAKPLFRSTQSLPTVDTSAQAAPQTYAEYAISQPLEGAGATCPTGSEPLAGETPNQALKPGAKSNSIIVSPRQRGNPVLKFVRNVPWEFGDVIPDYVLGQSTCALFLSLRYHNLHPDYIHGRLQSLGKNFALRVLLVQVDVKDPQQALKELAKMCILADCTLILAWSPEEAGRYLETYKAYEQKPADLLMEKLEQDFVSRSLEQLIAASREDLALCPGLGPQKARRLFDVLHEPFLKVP

B1: XPF S312A (enzyme)
chain: MESGQPARRIAMAPLLEYERQLVLELLDTDGLVVCARGLGADRLLYHFLQLHCHPACLVLVLNTQPAEEEYFINQLKIEGVEHLPRRVTNEITSNSRYEVYTQGGVIFATSRILVVDFLTDRIPSDLITGILVYRAHRIIESCQEAFILRLFRQKNKRGFIKAFTDNAVAFDTGFCHVERVMRNLFVRKLYLWPRFHVAVNSFLEQHKPEVVEIHVSMTPTMLAIQTAILDILNACLKELKCHNPSLEVEDLSLENAIGKPFDKTIRHYLDPLWHQLGAKTKSLVQDLKILRTLLQYLSQYDCVTFLNLLEALRATEKAFGQNSGWLFLDSSTSMFINARARVYHLPDAKMSKKEKISEKMEIKEGEETKKELVLESNPKWEALTEVLKEIEAENKESEALGGPGQVLICASDDRTCSQLRDYITLGAEAFLLRLYRKTFEKDSKAEEVWMKFRKEDSSKRIRKSHKRPKDPQNKERASTKERTLKKKKRKLTLTQMVGKPEELEEEGDVEEGYRREISSSPESCPEEIKHEEFDVNLSSDAAFGILKEPLTIIHPLLGCSDPYALTRVLHEVEPRYVVLYDAELTFVRQLEIYRASRPGKPLRVYFLIYGGSTEEQRYLTALRKEKEAFEKLIREKASMVVPEEREGRDETNLDLVRGTASADVSTDTRKAGGQEQNGTQQSIVVDMREFRSELPSLIHRRGIDIEPVTLEVGDYILTPEMCVERKSISDLIGSLNNGRLYSQCISMSRYYKRPVLLIEFDPSKPFSLTSRGALFQEISSNDISSKLTLLTLHFPRLRILWCPSPHATAELFEELKQSKPQPDAATALAITADSETLPESEKYNPGPQDFLLKMPGVNAKNCRSLMHHVKNIAELAALSQDELTSILGNAANAKQLYDFIHTSFAEVVSKGKGKK
B1: the catalytic efficiency kcat/Km of XPF(S312A)–ERCC1 on a stem–loop DNA substrate, real-time fluorescence incision assay (wild type: 1.73) with ERCC1 (human) is 4.42e+07 M⁻¹ s⁻¹.

B2: SLX4^NTD (residues 1–758) (domain or fragment)
chain: MKLSVNEAQLGFYLGSLSHLSACPGIDPRSSEDQPESLKTGQMMDESDEDFKELCASFFQRVKKHGIKEVSGERKTQKAASNGTQIRSKLKRTKQTATKTKTLQGPAEKKPPSGSQAPRTKKQRVTKWQASEPAHSVNGEGGVLASAPDPPVLRETAQNTQTGNQQEPSPNLSREKTRENVPNSDSQPPPSCLTTAVPSPSKPRTAQLVLQRMQQFKRADPERLRHASEECSLEAAREENVPKDPQEEMMAGNVYGLGPPAPESDAAVALTLQQEFARVGASAHDDSLEEKGLFFCQICQKNLSAMNVTRREQHVNRCLDEAEKTLRPSVPQIPECPICGKPFLTLKSRTSHLKQCAVKMEVGPQLLLQAVRLQTAQPEGSSSPPMFSFSDHSRGLKRRGPTSKKEPRKRRKVDEAPSEDLLVAMALSRSEMEPGAAVPALRLESAFSERIRPEAENKSRKKKPPVSPPLLLVQDSETTGRQIEDRVALLLSEEVELSSTPPLPASRILKEGWERAGQCPPPPERKQSFLWEGSALTGAWAMEDFYTARLVPPLVPQRPAQGLMQEPVPPLVPPEHSELSERRSPALHGTPTAGCGSRGPSPSASQREHQALQDLVDLAREGLSASPWPGSGGLAGSEGTAGLDVVPGGLPLTGFVVPSQDKHPDRGGRTLLSLGLLVADFGAMVNNPHLSDVQFQTDSGEVLYAHKFVLYARCPLLIQYVNNEGFSAVEDGVLTQRVLLGDVSTEAARTFLHYLYTA
B2: the catalytic efficiency kcat/Km of XPF–ERCC1–SLX4^NTD on a stem–loop DNA substrate, real-time fluorescence incision assay (XPF–ERCC1 alone: 1.73) in test [1] was 1.73e+08 M⁻¹ s⁻¹. For the same molecule, the catalytic efficiency kcat/Km of XPF(323–326 Δ)–ERCC1–SLX4^NTD on a stem–loop DNA substrate, real-time fluorescence incision assay in test [2] is 5e+06 M⁻¹ s⁻¹.
